From publication PMC5433297, “Isoflavone Malonyltransferases GmIMaT1 and GmIMaT3 Differently Modify Isoflavone Glucosides in Soybean (Glycine max) under Various Stresses” (Frontiers in Plant Science, 2017)

Legend:
Assay in all cases: HPLC malonyltransferase assay, Lineweaver-Burk
Assay type in all cases: biochemical, Glycine max
[1] = substrate: O=c1c(-c2ccc(O)cc2)coc2cc(O[C@@H]3O[C@H](CO)[C@@H](O)[C@H](O)[C@H]3O)ccc12; conditions: 40 μM malonyl-CoA, 20 mM potassium phosphate pH 7.2, 30°C
Text: (§1) HPLC malonyltransferase assay, Lineweaver-Burk on GmIMaT1

[2] = substrate: O=c1c(-c2ccc(O)cc2)coc2cc(O[C@@H]3O[C@H](CO)[C@@H](O)[C@H](O)[C@H]3O)cc(O)c12; conditions: 40 μM malonyl-CoA, 20 mM potassium phosphate pH 7.2, 30°C
Text: as §1

[3] = substrate: CC(C)(COP(=O)(O)OP(=O)(O)OC[C@H]1O[C@@H](n2cnc3c(N)ncnc32)[C@H](O)[C@@H]1OP(=O)(O)O)[C@@H](O)C(=O)NCCC(=O)NCCSC(=O)CC(=O)O; conditions: 60 μM genistin as acceptor, 20 mM potassium phosphate pH 7.2, 30°C
Text: as §1

[4] = substrate: COc1cc2c(=O)c(-c3ccc(O)cc3)coc2cc1O[C@@H]1O[C@H](CO)[C@@H](O)[C@H](O)[C@H]1O; conditions: 40 μM malonyl-CoA, 20 mM potassium phosphate pH 7.2, 30°C
Text: as §1

[5] = substrate: O=c1c(-c2ccc(O)cc2)coc2cc(O[C@@H]3O[C@H](CO)[C@@H](O)[C@H](O)[C@H]3O)ccc12; conditions: 40 μM malonyl-CoA, 20 mM potassium phosphate pH 7.2, 30°C; remark: listed apart in the source
Text: (§2) HPLC malonyltransferase assay, Lineweaver-Burk on GmIMaT3

[6] = substrate: O=c1c(-c2ccc(O)cc2)coc2cc(O[C@@H]3O[C@H](CO)[C@@H](O)[C@H](O)[C@H]3O)cc(O)c12; conditions: 40 μM malonyl-CoA, 20 mM potassium phosphate pH 7.2, 30°C; remark: listed apart in the source
Text: as §2

[7] = substrate: CC(C)(COP(=O)(O)OP(=O)(O)OC[C@H]1O[C@@H](n2cnc3c(N)ncnc32)[C@H](O)[C@@H]1OP(=O)(O)O)[C@@H](O)C(=O)NCCC(=O)NCCSC(=O)CC(=O)O; conditions: 60 μM genistin as acceptor, 20 mM potassium phosphate pH 7.2, 30°C; remark: listed apart in the source
Text: as §2

[8] = substrate: COc1cc2c(=O)c(-c3ccc(O)cc3)coc2cc1O[C@@H]1O[C@H](CO)[C@@H](O)[C@H](O)[C@H]1O; conditions: 40 μM malonyl-CoA, 20 mM potassium phosphate pH 7.2, 30°C; remark: listed apart in the source
Text: as §2

B1: GmIMaT1 (Glycine max) (protein)
chain: MASHNIKIHDHLRVSPPSATEISLSLTFFDLFWLRFHPVERIFFYTLPTPHSNPSIFYSKLVPKLKTSLSRTLQHFPPLAGNVVWPDNTPNPTVQYTPGDSVSLVVAESEADFNHVLDNSPHKASELRCLVPHLDSSDSHASVVSFQITLFPNRGFSIGISTHHAVLDGKSSTIFIKAWASLCKTYNDDESSESSSPSLAPELKPFFDRTAIKDPSEIGLNFTVNWTEILTKFFPNENSDGRCLKLLPFPPRLEDHVRASFALTGADLEKLRKRVLSKWDIVDRGAESEPPRLSSFVLTCAYALACIAKAIHGVEKEKEKFAFAFTVDCRARLEPPIHDNYFGNCVWGHVVDAEPLDFIKEEAFAIVAKSIHSKIKMILDEGIFHGMESAFSRYESLGKDGVEIMGIAGSNRFGVYGTDFGWGKPAKVEIASVDRALTIGFAESKDGNDGVQVGLVLKKHVMDLFCTLFRQGMLDD
notes: full-length ORF (476 residues), His-tagged fusion (pDEST17), E. coli BL21 (DE3), nickel resin, partially purified; cDNA from soybean roots
[1]
  Km: 36.28 ± 3.2 µM
  kcat/Km: 820000 ± 10000 M⁻¹ s⁻¹
[2]
  Km: 23.04 ± 1.5 µM
  kcat/Km: 2.47e+06 ± 100000 M⁻¹ s⁻¹
[3]
  Km: 18.30 ± 1.2 µM
  kcat/Km: 440000 ± 70000 M⁻¹ s⁻¹
[4]
  Km: 13.11 ± 0.92 µM
  kcat/Km: 5.21e+06 ± 140000 M⁻¹ s⁻¹

B2: GmIMaT3 (Glycine max) (protein)
chain: MAETPTLRIHEVCPISPPQETPSTTIPFTFFDVLWLRLPPVERLFFYSFPNPTTTSSFFDTTILPNLKHSLSLTLHHFPPLAGTITWPLHTPLPLIAYTPGNSIPFRIAESNADFNTLSSNLSEVNNHRRNLIPHLPTSHEEASVLALQLTHFPNQGYSIGITSHHAALDGKSSTLFMKSWAHICSYLNTSPEEPLLFSLPKHLTPSFDRSVIRDPLGIGEIYAKSWTSFGGATNDRSLNVWDTLGGNQTDLVKGLFELTPLDIKKLKKLAESKFVVGDNKKKVRVTSFTVTCAYLLSCAVKAEQPNCERVHFVFNVDCRARLDPPIPETYFGNCVVALLASAKREELLGEEAFFKSVIGISEELNGLEGDVLNGADKWIPKIQSVVSETPRLFSVAGSPRFEVYGIDFGWGRPEKVDVASVNKTGAFSLSESRDHSGGIQIGLALTKNQMEAFSRVFAQGLESLES
notes: full-length ORF (467 residues), His-tagged fusion (pDEST17), E. coli BL21 (DE3), nickel resin, partially purified; cDNA from soybean roots; allele with three amino acid differences from GmMT7 and GmIF7MaT
[5]
  Km: 30.12 ± 2.6 µM
  kcat/Km: 1.15e+06 ± 120000 M⁻¹ s⁻¹
[6]
  Km: 26.67 ± 0.86 µM
  kcat/Km: 1.54e+06 ± 140000 M⁻¹ s⁻¹
[7]
  Km: 25.59 ± 2.2 µM
  kcat/Km: 750000 ± 120000 M⁻¹ s⁻¹
[8]
  Km: 12.94 ± 1.3 µM
  kcat/Km: 5.61e+06 ± 1.25e+06 M⁻¹ s⁻¹
